Laboratory results: patent publication US20090298765A1 (Takeda / Millennium, published 2009)
Non-standard residues stand in square brackets, D forms with d. Primed or numbered codes have the meaning given here. No end group written: not given here. *: point of attachment. Phe(3-CF3) = N[C@@H](Cc1cccc(C(F)(F)F)c1)C(=O)O; Arg(Et)′ = arginine carrying an ethyl group; Phe(4-CN) = N#Cc1ccc(C[C@H](N)C(=O)O)cc1; Phe(4-Cl) = N[C@@H](Cc1ccc(Cl)cc1)C(=O)O; Phe(3-F) = N[C@@H](Cc1cccc(F)c1)C(=O)O; Phe(4-F) = N[C@@H](Cc1ccc(F)cc1)C(=O)O; Phe(2-F) = N[C@@H](Cc1ccccc1F)C(=O)O; Arg(Me) = CNC(=N)NCCC[C@H](N)C(=O)O; Fmoc = O=C(OCC1c2ccccc2-c2ccccc21)*; 2Pal = N[C@@H](Cc1ccccn1)C(=O)O; 3Pal = N[C@@H](Cc1cccnc1)C(=O)O; Cha = N[C@@H](CC1CCCCC1)C(=O)O; Arg(Et)″ = ethylated arginine; Dab = NCC[C@H](N)C(=O)O; azaGly = NNC(=O)O

B1: des(1)-[D-Asn2,Cha3,AzaGly7,Arg(Me)9]MS10 (peptide)
peptide: [dN][Cha]NSF[azaGly]L[Arg(Me)]F-NH2
B2: des(1-2)-Acetyl-[Ala3,AzaGly7,Arg(Me)9]MS10 (peptide)
peptide: Ac-ANSF[azaGly]L[Arg(Me)]F-NH2
SMILES: CNC(=N)NCCC[C@H](NC(=O)[C@H](CC(C)C)NC(=O)NNC(=O)[C@H](Cc1ccccc1)NC(=O)[C@H](CO)NC(=O)[C@H](CC(N)=O)NC(=O)[C@H](C)NC(C)=O)C(=O)N[C@@H](Cc1ccccc1)C(N)=O
B3: [Phe(4CN)10]MS10 (peptide)
peptide: YNWNSFGLR[Phe(4-CN)]-NH2
notes: also called Compound No. 77
B4: [7Ψ8,CH2NH,D-Tyr1,Arg(Me)9]MS10 (peptide)
peptide: [dY]NWNSFGL[Arg(Me)]F-NH2
modifications: also: bond 7-8 CONH replaced by CH2NH
notes: also called Compound No. 307
B5: [D-Tyr1,Cha3,6,Arg(Me)9]MS10 (peptide)
peptide: [dY]N[Cha]NS[Cha]GL[Arg(Me)]F-NH2
notes: also called Compound No. 181
B6: [Phe(3,4F2)10]MS10 (peptide)
peptide: YNWNSFGLR[Phe(3,4F2)]-NH2
notes: also called Compound No. 198
B7: [1Ψ2,CH2NH,AzaGly7,Arg(Me)9]-MS10 (peptide)
peptide: YNWNSF[azaGly]L[Arg(Me)]F-NH2
modifications: also: bond 1-2 CONH replaced by CH2NH
notes: also called Compound No. 299
B8: [Phe(4F)10]MS10 (peptide)
peptide: YNWNSFGLR[Phe(4-F)]-NH2
notes: also called Compound No. 61
B9: [Phe(3CF3)10]MS10 (peptide)
peptide: YNWNSFGLR[Phe(3-CF3)]-NH2
notes: also called Compound No. 200
B10: des(1-2)-Fmoc-[Arg(Me)9]MS10 (peptide)
peptide: Fmoc-WNSFGL[Arg(Me)]F-NH2
notes: also called Compound No. 145
B11: [D-Tyr1,D-Trp3,AzaGly7,Arg(Me)9]MS10 (peptide)
peptide: [dY]N[dW]NSF[azaGly]L[Arg(Me)]F-NH2
notes: also called Compound No. 236
B12: [D-Tyr1,Pya(3)3,AzaGly7,Arg(Me)9]MS10 (peptide)
peptide: [dY]N[3Pal]NSF[azaGly]L[Arg(Me)]F-NH2
notes: also called Compound No. 251
B13: [Dab9]MS10 (peptide)
peptide: YNWNSFGL[Dab]F-NH2
notes: also called Compound No. 313
B14: [Pya(3)10]MS10 (peptide)
peptide: YNWNSFGLRX
modifications: Pya(3)10; C-terminal amide
notes: also called Compound No. 60
B15: [Phe(4Cl)10]MS10 (peptide)
peptide: YNWNSFGLR[Phe(4-Cl)]-NH2
notes: also called Compound No. 130
B16: [Phe(2F)10]MS10 (peptide)
peptide: YNWNSFGLR[Phe(2-F)]-NH2
notes: also called Compound No. 19
B17: [D-Tyr1,D-Asn2,Cha3,AzaGly7,Arg(Me)9]MS10 (peptide)
peptide: [dY][dN][Cha]NSF[azaGly]L[Arg(Me)]F-NH2
notes: also called Compound No. 283
B18: des(1-2)-[D-Trp3,Arg(Me)9]MS10 (peptide)
peptide: [dW]NSFGL[Arg(Me)]F-NH2
notes: also called Compound No. 223
B19: [Phe(3F)10]MS10 (peptide)
peptide: YNWNSFGLR[Phe(3-F)]-NH2
notes: also called Compound No. 197
B20: [D-Tyr1,Pya(2)3,AzaGly7,Arg(Me)9]MS10 (peptide)
peptide: [dY]N[2Pal]NSF[azaGly]L[Arg(Me)]F-NH2
notes: also called Compound No. 285
B21: [Arg(Et)9]MS10 (peptide)
peptide: YNWNSFGL[Arg(Et)′]F-NH2
notes: also called Compound No. 220
B22: [D-Tyr1,Arg(Et)9]MS10 (peptide)
peptide: [dY]NWNSFGL[Arg(Et)″]F-NH2
notes: also called Compound No. 192
B23: des(1-3)-D-Glucuronyl-[AzaGly7,Arg(Me)9]MS10 (peptide)
peptide: {D‑glucuronyl}-NSF[azaGly]L[Arg(Me)]F-NH2
notes: also called Compound No. 328
B24: [D-Tyr1,D-Trp3,Arg(Me)9]MS10 (peptide)
peptide: [dY]N[dW]NSFGL[Arg(Me)]F-NH2
notes: also called Compound No. 142

What follows are binders tested against T1, human OT7T175 (metastin receptor) (human, UniProt Q969F8 1-398) (assay: cell-based or functional assay).
T1 sequence (Q969F8 whole entry L364H): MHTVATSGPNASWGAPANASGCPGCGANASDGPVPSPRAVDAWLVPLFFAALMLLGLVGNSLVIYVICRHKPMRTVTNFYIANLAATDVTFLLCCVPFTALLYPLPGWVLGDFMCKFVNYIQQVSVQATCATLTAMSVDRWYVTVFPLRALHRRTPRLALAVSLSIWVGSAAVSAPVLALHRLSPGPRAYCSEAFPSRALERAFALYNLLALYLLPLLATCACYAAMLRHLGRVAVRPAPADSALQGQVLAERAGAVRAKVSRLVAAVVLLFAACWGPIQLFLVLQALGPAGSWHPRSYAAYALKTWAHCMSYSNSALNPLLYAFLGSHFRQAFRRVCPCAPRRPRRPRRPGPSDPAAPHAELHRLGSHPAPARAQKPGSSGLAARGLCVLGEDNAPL
With B1 the “Ca ion level-increasing activity (FLIPR)” value was 1 x Metastin (1-54). In the case of B2, the “Ca ion level-increasing activity (FLIPR)” value is reported as 1 x Metastin (1-54).

Each binder was assayed against T1, human OT7T175 (metastin receptor) (assay: competition with Cy-5 metastin (40-54) on hOT7T175-CHO cells, FMAT).
Method: hOT7T175-Expressed CHO cells were cultured in MEM-α medium (nucleic acid-free) containing 10% dialyzed serum. The medium was removed and the adhered cells were washed with PBS. Then, PBS containing 5 mM EDTA was added and the cells were scraped from a flask with a cell scraper.
To each well of a 96-Well Black Clear Bottom Microplate (Applied Biosystems, Inc.), 10 μL of assay buffer containing 1% dimethylsulfoxide was added to examine total binding, 10 μL of 10 μM non-labeled peptide (having the same amino acid sequence as that of labeled one) solution diluted with assay buffer to examine non-specific binding, and 10 μL of a test compound diluted with assay buffer to examine a binding inhibition activity of the test compound, and furthermore, 90 μL each of the cell suspension was dispensed to each well. […] Specific binding is calculated as non-specific binding subtracted from total binding. The binding inhibition activity of a test compound is shown by a ratio of the value obtained by subtracting a measured value in presence of a test compound from the total binding to the specific binding.
B3 was tested, and the IC50 was 7.4 nM. Binder B4 has an IC50 of 64 nM. In the case of B5, the IC50 is reported as 19 nM. For B6, the IC50 was 170 nM. B7 was tested, and the IC50 was 1.2 nM. In the case of B8, the IC50 is reported as 13 nM. For B9, the IC50 was 340 nM. With B10 the IC50 was 120 nM. For B11, the IC50 was 42 nM. In the case of B12, the IC50 is reported as 87 nM. B13 gave an IC50 of 690 nM. Work on B14 yielded an IC50 of 170 nM. For B15, the IC50 was 42 nM. With B16 the IC50 was 8.6 nM. With B17 the IC50 was 0.69 nM. Work on B18 yielded an IC50 of 760 nM. In the case of B19, the IC50 is reported as 170 nM. B20 was tested, and the IC50 was 40 nM. For B21, the IC50 was 330 nM. B22 showed an IC50 of 530 nM. B23 was tested, and the IC50 was 470 nM. B24 gave an IC50 of 26 nM.
